Results on three molecules are retold here after patent US20240325562A1, “INTERNALIZING BINDING MOLECULES” (LinXis B.V., priority 2020, published 2024).

Data set [1] is described as follows: Biodistribution by whole-body PET of 89Zr-labelled constructs. Type of data set: in vivo. The settings on record: 89Zr-desferral labelled, i.v., rats. The procedure: (§1) The in vivo pharmacokinetic properties of 13F11-13E8-ABD (F11E8-ABD; with ABD) and 13F11-13E8 (F11E8; without ABD) were compared in healthy Sprague-Dawley rats. In brief, rats were dosed intravenously with approximately 3 mg/kg body weight and blood samples were taken at different time points and the concentration of the VHH constructs were determined using an ELISA on immobilized hIGF2R-ECD. […] To further confirm the functionality of the ABD, biodistribution of F11E8-ABD and F11E8 were assessed by means of Positron Emission Tomography (PET). In brief, the constructs were radio-labelled with the positron emitter ^89Zr-desferral according to Verel et al (J Nucl Med. 2003; 44:1271-1281), and administered intravenously to rats after which biodistribution was assessed on subsequent time points by whole-body PET.

Data set [2] has as its system primary activated rat hepatic stellate cells (HSCs). In words: Binding to primary activated rat hepatic stellate cells. Type of data set: cell-based. The note with it: Alexa Fluor 488 conjugate; HSCs from BDL rat, 6 days in culture. The text has this:
The cross-reactivity of F11-E8-ABD was further evaluated in binding experiments to primary activated rat hepatic stellate cells (HSCs). For this, the construct was conjugated to Alexa Fluor 488 according to the methods described in example 10.2. Activated HSCs were obtained from a perfused liver of a cirrhotic bile duct ligated (BDL) rat through density gradient centrifugation. Cells were kept in culture for 6 days to allow complete activation. […] Simultaneously, binding of the VHH construct to the activated cells was evident, further confirming species cross-reactivity of the construct.

Data set [3] is described as follows: In vivo pharmacokinetics in rats, serum ELISA on hIGF2R-ECD. Set-up: species or system Sprague-Dawley rats. On the procedure: as §1
A general note: ELISA stands for enzyme-linked immunosorbent assay.

In data set [4] the test system is LX2 cells (an activated hepatic stellate cell line). The data set can be described thus: Live imaging of internalization with pHrodo-red conjugates in LX2 cells. Type of data set: cell-based, human. The settings on record: 50 nM pHrodo-red conjugate. The text has this: Internalization of monovalent 13F11 and biparatopics 13F11-13E8 and 13E8-13F11 was finally assessed in LX2 cells (an activated hepatic stellate cell line). For live imaging of internalization, the pH dependent Phrodo probe was used (ThermoFisher Scientific). This pH dependent probe becomes more fluorescent at acidic pH. Endosomes and lysosomes have a pH maintained at 6.5 and 4.5, respectively, compared to cytoplasmic pH of 7.0, and thus internalization of a VHH-pHrodo construct can be visualized when it internalizes via the endosomal pathway. LX-2 cells were incubated at 37° C. for 2 hours with 50 nM of pHrodo-red conjugated 13F11, 13F11-13E8 and 13E8-13F11 (conjugation method as described in example 10.2). Images were taken at 5 min. intervals using a wide-field PEXScope microscope (Nikon) with a mCherry filter and 40× oil objective.

Data set [5] deals with mock transfected NIH 3T3 2.2 cells. In words: Internalization by fluorescence microscopy after acid wash, mock transfected cells. The format is cell-based. The settings on record: 25 nM Alexa fluor 647 conjugate, negative control cells. On the procedure: (§2) First, Alexa fluor 647-conjugates of the VHH 13F11 and the biparatopic VHH construct […] were added to A549 cells that endogenously express hIGF2R (FIG. 16A), NIH 3T3 2.2 cells that were transiently transfected with hIGF2R (FIG. 16B), or mock transfected NIH 3T3 2.2 cells (as a negative control). For this, the cells were incubated with 25 nM of the VHH or the VHH construct. Before fluorescent microscopy readout, to ensure that only signal of internalized VHH or mouse anti-IGF2R was present, an acid wash (0.2M glycine-HCl, 150 mM NaCl, pH 2.3) was used to remove VHH or mouse anti-IGF2R bound to the target receptors on the cell surface. The efficiency of the acid wash procedure was verified by incubating the hIGF2R transfected NIH 3T3 2.2 cells with 13F11-13E8-A647 on ice and subsequently treating these cells with an acid wash while remaining on ice to prevent internalization (FIG. 16D). […] Summarizing, biparatopic 13F11-13E8 clearly internalizes in cells expressing hIGF2R on the cell surface.

Data set [6] deals with NIH 3T3 2.2 cells that were transiently transfected with hIGF2R. In words: Internalization by fluorescence microscopy after acid wash, hIGF2R-transfected NIH 3T3 2.2 cells. The format is cell-based, human. The settings on record: 25 nM Alexa fluor 647 conjugate. On the procedure: as §2
Data set [7] concerns SCC-rIGF2R cells. In words: Kinetic internalization assay on SCC-rIGF2R cells. The format is cell-based, rat. The procedure:
(§3) The rate of internalization (endocytic rate constant, ke) of biparatopic constructs 13F11-13E8 and 13E8-13F11 was determined with a kinetic internalization assay on SCC-hIGF2R and SCC-rIGF2R cells. Briefly, 10 nM of IRD800CW conjugated 13F11-13E8 or 13E8-13F11 (conjugation method as described in example 10.2) was added to hIGF2R expressing SCC cells or rIGF2R expressing SCC cells and incubated at 37° C. for different time points up to 12 minutes. Internalization was then purposely halted by putting the cells on ice. Subsequently, cells were washed with cold PBS and the non-internalized VHH construct (bound fraction) was separated from the internalized construct (internalized fraction) using an acid-wash, as described above, after which the fluorescence of both fractions were measured. Both constructs internalize with similar endocytic rate constants in SCC-hIGF2R cells (ke around 1.5 min-1) and in SCC-rIGF2R cells (ke around 0.7 min-1) (FIGS. 17A and B, respectively).
(§4) Internalization of 13F11-13E8 and the corresponding monomeric VHHs 13F11 and 13E8 was assessed in a similar assay (FIG. 17A-C).

Data set [8] has as its system A549 cells that endogenously express hIGF2R. In words: Internalization by fluorescence microscopy after acid wash, A549 cells. The format is cell-based, human. The note with it: 25 nM Alexa fluor 647 conjugate. The procedure:
as §2

Data set [9] deals with SCC-hIGF2R cells. The data set can be described thus: Kinetic internalization assay on SCC-hIGF2R cells. Type of data set: cell-based, human. On the procedure: as §3, §4
The test system of data set [10] is SCC cells expressing mIGF2R. The data set can be described thus: Kinetic internalization assay on SCC cells expressing mIGF2R. The format is cell-based, murine. The settings on record: IRDye800 conjugates, FIG. 17C left panel. On the procedure:
as §3, §4

The target of data set [11] is hPDGFRB-ECD (Homo sapiens, UniProt P09619). The data set can be described thus: Binding assay on hPDGFRB-ECD. The settings on record: biparatopic constructs, FIG. 15A. The procedure:
The 15 unique hIGF2R-binding VHH (Example 2.1, FIG. 2) were produced and purified as described in examples 3 and 4. The apparent affinities were determined through binding assay on immobilized hIGF2R-ECD. Briefly, three-fold serial dilution series, starting from 1 μM, of each VHH were plated onto hIGF2R-ECD coated plates. VHH were allowed to bind for two hours after which plates were washed. Then, bound VHH was detected using a VHH-specific IgG antibody, followed by an IRD800CW-conjugated IgG-specific antibody. Plates were read out by fluorimetry.
The 18 unique hPDGFRB binders from libraries 1 and 2, and the 11 unique rPDGFRB binders from libraries 3 and 4 (Example 2.2, FIGS. 5 and 6) were produced and purified as described in examples 3 and 4. Then, the apparent affinities were determined with binding assays on hPDGFRB-ECD and rPDGFRB-ECD, respectively, the setup described in example 5.1. Results are summarized in FIGS. 5 and 6 for the hPDGFRB and rPDGFRB VHHs, respectively.
(§5) Based on their high affinity and binding to non-overlapping hPDGRB epitopes, various biparatopic constructs were prepared based on VHHs SP02P, SP12P SP14P, SP26P and SP28P. The constructs were produced as described in example 7.1. and subjected to binding assay.
As Shown in FIG. 15C), the binding affinity of this construct for both hPDGFRB and rPDGFRB are below 5 nM. […]

Data set [12] has as its target T1, hPDGFRB (SCC-hPDGFRB cells) (Homo sapiens, UniProt P09619).
T1 construct: SCC VII cells transgenically expressing full-length human PDGFRB (SCC-hPDGFRB); expressed in transfected cells; host or cells: murine SCC VII cells
The data set can be described thus: Binding to cells transgenically expressing human PDGFRB. On the procedure: (§6) High affine binders to hPDGFRB-ECD or rPDGFRB-ECD were subsequently assessed for binding to SCC VII cells transfected with hPDGFRB and rPDGFRB, respectively.
as §5
(§7) As Shown in FIG. 15C), the binding affinity of this construct for both hPDGFRB and rPDGFRB are below 5 nM. […] These observations make SP02P (or similar VHH) and SP26P (or similar VHH) particularly promising for use in the present invention.

Data set [13] addresses T2, rPDGFRB (SCC-rPDGFRB cells) (Rattus norvegicus, UniProt Q05030).
T2 construct: SCC VII cells transgenically expressing full-length rat PDGFRB (SCC-rPDGFRB); expressed in transfected cells; host or cells: murine SCC VII cells
The data set can be described thus: Binding to cells transgenically expressing rat PDGFRB. On the procedure:
as §6, §5, §7

[14] abbreviates: 10 nM IRD800CW conjugate, 37° C., up to 12 minutes.

Chain of hPDGFRB-ECD (P09619 33-532 limits assumed): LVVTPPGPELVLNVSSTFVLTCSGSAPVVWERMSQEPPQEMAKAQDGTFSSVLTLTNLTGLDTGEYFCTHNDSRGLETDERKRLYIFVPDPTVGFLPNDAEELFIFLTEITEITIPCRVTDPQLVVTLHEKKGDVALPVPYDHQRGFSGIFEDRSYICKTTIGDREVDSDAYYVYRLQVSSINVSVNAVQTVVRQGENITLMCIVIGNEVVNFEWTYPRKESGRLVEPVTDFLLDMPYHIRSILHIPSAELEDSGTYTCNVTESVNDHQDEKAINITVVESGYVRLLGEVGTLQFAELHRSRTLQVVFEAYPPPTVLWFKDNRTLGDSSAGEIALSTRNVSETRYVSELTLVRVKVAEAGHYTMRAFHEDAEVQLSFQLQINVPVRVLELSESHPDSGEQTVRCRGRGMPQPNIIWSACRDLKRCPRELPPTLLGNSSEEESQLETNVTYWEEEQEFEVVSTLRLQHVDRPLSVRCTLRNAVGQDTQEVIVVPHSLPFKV
T2 sequence (Q05030 32-1097): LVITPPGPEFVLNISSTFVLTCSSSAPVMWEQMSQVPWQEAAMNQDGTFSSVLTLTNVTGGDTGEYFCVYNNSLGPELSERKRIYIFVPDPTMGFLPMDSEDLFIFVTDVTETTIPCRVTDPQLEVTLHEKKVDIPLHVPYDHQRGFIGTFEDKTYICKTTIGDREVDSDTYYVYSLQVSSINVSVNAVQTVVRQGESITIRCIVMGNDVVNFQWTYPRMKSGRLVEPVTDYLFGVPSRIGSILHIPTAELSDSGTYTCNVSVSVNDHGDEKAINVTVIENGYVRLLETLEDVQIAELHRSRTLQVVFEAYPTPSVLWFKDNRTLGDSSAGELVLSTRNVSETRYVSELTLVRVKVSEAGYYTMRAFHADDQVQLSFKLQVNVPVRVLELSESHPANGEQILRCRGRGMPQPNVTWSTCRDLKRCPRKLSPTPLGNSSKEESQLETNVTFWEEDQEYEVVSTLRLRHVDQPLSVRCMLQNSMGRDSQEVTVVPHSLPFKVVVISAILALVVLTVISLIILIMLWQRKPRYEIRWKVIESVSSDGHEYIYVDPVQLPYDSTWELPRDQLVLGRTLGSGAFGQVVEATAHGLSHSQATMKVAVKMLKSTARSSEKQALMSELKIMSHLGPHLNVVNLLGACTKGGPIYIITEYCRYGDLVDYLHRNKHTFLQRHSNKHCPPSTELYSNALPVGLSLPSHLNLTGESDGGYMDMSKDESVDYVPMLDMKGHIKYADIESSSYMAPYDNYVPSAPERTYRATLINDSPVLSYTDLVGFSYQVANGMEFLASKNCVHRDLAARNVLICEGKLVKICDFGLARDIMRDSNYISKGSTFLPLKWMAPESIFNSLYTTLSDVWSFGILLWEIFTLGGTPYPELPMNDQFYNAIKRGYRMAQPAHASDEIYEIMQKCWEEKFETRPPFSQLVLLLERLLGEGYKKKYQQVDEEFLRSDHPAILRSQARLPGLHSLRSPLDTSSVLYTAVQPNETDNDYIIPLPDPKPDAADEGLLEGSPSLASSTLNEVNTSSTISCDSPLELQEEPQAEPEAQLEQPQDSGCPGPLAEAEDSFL
T1 sequence (P09619 33-1106): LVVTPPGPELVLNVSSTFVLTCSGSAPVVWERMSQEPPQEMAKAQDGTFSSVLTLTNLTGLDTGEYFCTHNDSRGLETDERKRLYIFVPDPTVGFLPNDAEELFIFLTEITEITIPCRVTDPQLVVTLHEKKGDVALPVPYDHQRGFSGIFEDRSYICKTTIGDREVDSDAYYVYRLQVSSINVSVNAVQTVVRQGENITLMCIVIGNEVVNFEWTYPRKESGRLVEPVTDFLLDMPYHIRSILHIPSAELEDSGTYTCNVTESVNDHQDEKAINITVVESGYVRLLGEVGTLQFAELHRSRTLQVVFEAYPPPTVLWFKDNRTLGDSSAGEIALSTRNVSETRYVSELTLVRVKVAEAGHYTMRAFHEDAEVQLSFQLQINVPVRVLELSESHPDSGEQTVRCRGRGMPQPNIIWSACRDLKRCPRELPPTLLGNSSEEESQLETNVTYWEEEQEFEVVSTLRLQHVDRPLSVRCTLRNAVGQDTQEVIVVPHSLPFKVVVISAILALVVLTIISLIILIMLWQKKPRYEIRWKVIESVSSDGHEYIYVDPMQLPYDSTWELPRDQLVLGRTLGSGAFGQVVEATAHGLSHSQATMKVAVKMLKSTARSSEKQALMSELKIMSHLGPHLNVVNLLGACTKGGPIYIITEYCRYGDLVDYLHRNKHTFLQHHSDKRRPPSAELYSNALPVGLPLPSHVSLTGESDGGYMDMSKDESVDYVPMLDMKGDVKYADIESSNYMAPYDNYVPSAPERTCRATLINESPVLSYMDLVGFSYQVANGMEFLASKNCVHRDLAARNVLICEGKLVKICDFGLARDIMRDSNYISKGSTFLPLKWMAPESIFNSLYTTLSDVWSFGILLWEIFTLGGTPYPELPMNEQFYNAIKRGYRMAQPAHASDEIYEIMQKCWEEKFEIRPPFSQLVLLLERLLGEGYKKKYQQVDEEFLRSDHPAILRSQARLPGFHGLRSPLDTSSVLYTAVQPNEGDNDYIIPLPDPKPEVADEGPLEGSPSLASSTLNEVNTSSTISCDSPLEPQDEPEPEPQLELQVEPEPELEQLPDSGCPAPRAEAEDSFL

B1: 13F11-13E8-ABD: 13F11-13E8 re-engineered to include an albumin binding domain (ABD) as half-life extender (protein)
chain: EVQLVESGGRLVQPGDSLRLSCAASGRTFSDNAMGWFRQAPGKERRFVAGISWAGGSTYYSDSVKGRFTISRDNAKNTVYLQMNSLKPEDTAVYYCAAGLRAWVQRMPKDYNYWGQGTQVTVSSGGGGSGGGGSGGGGSEVQLVESGGGLVQAGGSLRLSCAASRSISPMGWYRQAPGKQRELVAIMPSSGPPIYADSVQGRFTISRDNAKNTVYLQMNSLKPEDTAVYYCNVGGGYWGQGTQVTVSS
modifications: left off: large carriers; small tags and cut ends
What is called Cmax is the maximum level reached in the sampled fluid or tissue. As to B1, the “biodistribution (PET)” value in [1] is “accumulate in the liver”. For the same molecule, the “binding to activated HSCs” value in data set [2] was “evident”. Besides, the “infused dose still in circulation” value in [3] (one hour after dosing, approximately 20 nmoles infused, estimated serum volume 10 mL) was “approximately 50%”. Moreover, in data set [3] (rats, i.v., approximately 3 mg/kg, read-out: peak serum level (Cmax)), the Cmax is greater than 1000 nM.

B2: 13F11-13E8: biparatopic IGF2R VHH construct, 13F11 and 13E8 fused with (Gly-Gly-Gly-Gly-Ser)3 linker, C-terminal cysteine (protein)
chain: B1 chain
modifications: left off: small tags and cut ends
notes: biparatopic IGF2R VHH construct, 13F11 and 13E8 fused with (Gly-Gly-Gly-Gly-Ser)3 linker, C-terminal cysteine
For B2, the “biodistribution (PET)” value in data set [1] was “swiftly accumulated in the kidneys”. Also, the “intracellular localisation of internalized construct” value in data set [4] is listed as “accumulate into perinuclear compartments (endosomes/lysosomes)”. Besides, the “increase in intracellular fluorescence (internalization)” value in data set [4] (37° C., compared to monovalent 13F11 / between biparatopics) was “higher rate of internalization”. Further, the results for the internalization entry in [5], in [6] and in data set [8] were “no internalization was observed”, “superior internalization” and “clearly internalized”, respectively. In addition, the “endocytic rate constant, ke” value in data set [7] (setting [14]) is “around 0.7 min-1”; in data set [9] (setting [14]), “around 1.5 min-1”. For the same molecule, the “internalization compared to the monomeric VHHs” value in data set [7] (IRDye800 conjugates, FIG. 17C middle panel) was “superior internalization”; in [9] (IRDye800 conjugates, FIG. 17C right panel) it was “superior internalization”; in data set [10] it was “superior internalization”. The “clearance from circulation / detectability in serum” value in data set [3] (rats, i.v., approximately 3 mg/kg, ELISA LOD approximately 20 nM) is recorded as “could not be detected anymore within two hours after injection”.

B3: SP26P-SP28P: biparatopic construct based on VHH raised against rPDGFRB (protein)
chain: EVQLVESGGGLVQAGGSLRLSCAASGSIVSFNGINWYRQAPGKQREWVGGITQGGNTMYADSVRGRFTISRDNTKNTMYLQMNSLKPEDTAVYYCRRPPVASWGQGTQVTVSSGGGGSGGGGSGGGGSEVQLVESGGGLVQAGGSLRLSCAASGRSFSSSVMGWFRQTPGKEREFVAATRWTAASTHYADSVKGRFTISRDHAENAVFLQMNSLKPEDTAVYYCAAGNYLDTAQYRYNYWGQGTQVTVSS
modifications: left off: small tags and cut ends
notes: biparatopic construct based on VHH raised against rPDGFRB
As for B3, in [11], the “affinity for hPDGFRB” value was “lowest affinity”. Also, in data set [12], the “affinity for hPDGFRB on cells” value was “low affinity”. The “affinity for rPDGFRB on cells” value in data set [13] is “high affinity”.
